The values that follow come from US20080242594A1, “Methods for Promoting Stem Cell Proliferation and Survival” (priority 2005, published 2008).

“Also recorded” adds a separate entry of the source.

In one assay the test system is Hes3. As to the kind of experiment: Hes3 expression (RT-PCR, immunohistochemistry) in CNS stem cells. The class given is cell-based, mouse. The conditions noted are these: for effect on Jagged-induced Hes3 mRNA induction: CNTF at high concentrations (>1 ng/ml). How it is done:
RT-PCR: For reverse-transcriptase PCR analysis, RNA was extracted from cell cultures or brain homogenates with Trizol (Invitrogen, 15596-026), and PCR reactions were performed with the ProSTAR First-Strand RT-PCR Kit (Stratagene, 200420). Primers were used for the following genes: Hes1, Hes2, Hes3, Hes5, Hes6, Hey2; Hes7
Notch signaling regulates transcription of the Hes/Hey gene family, a group of genes implicated in the control of differentiation (Iso et al., J Cell Physiol 194:237-55, 2003). RT-PCR was used to assess mRNA regulation of these genes one hour after Notch activation in CNS stem cells. […] The ability of high concentrations of CNTF to inhibit Hes3 induction following Notch activation was dependent on JAK activity (FIG. 4e). In contrast, in the absence of added Notch ligand, Hes3 mRNA levels were elevated by high CNTF and the JAK inhibitor (FIG. 4e).
Conversely, treatment with ciliary neurotrophic factor (CNTF), a cytokine that opposes the signal transduction pathway downstream of Notch activation opposed the ability of D114 to induce Hes3 transcription. Immunohistochemical experiments were performed that documented D114, CNTF regulate Hes3 expression. Thus, at the protein expression level, D114 maintains and CNTF inhibits Hes3 expression.

A further assay has as its system STAT3. The experiment in a line: STAT3 phosphorylation (Ser727, Tyr705) immunoblot in CNS stem cells. The class given is cell-based, mouse. Particulars: for effect on STAT3-Ser727 phosphorylation following Notch activation: Notch ligand treated CNS stem cells. From the text:
Ligands that activate JAK/STAT signaling promote astrocytic differentiation of CNS stem cells (Johe et al., Genes Dev 10:3129-40, 1996; Raj an et al., J Neurosci 18:3620-9, 1998; Bonni et al., Science 278:477-83, 1997; Song et al., Nat Neurosci 7:229-35, 2004; He et al., Nat Neurosci 8:616-625, 2005). When applying CNTF to CNS stem cells it was noted that low concentrations of CNTF stimulated survival but not expression of astrocyte specific genes. This is consistent with previous observations of Akt phosphorylation downstream of gp130 activation (Taga et al., Annu Rev Immunol 15:797-819, 1997). […] At high concentrations (20 ng/ml) the phosphorylation of Tyr705 can be blocked by an inhibitor of JAK while allowing a CNTF-induced increase in Ser727 phosphorylation (FIG. 2B) (Thompson et al., Bioorg Med Chem Lett 12:1219-23, 2002).
CNTF was used as a positive control; CNTF, induced the phosphorylation on both sites. With both CNTF and Notch activation, phosphorylation peaked at around 30 min. STAT3 phosphorylation on Ser727 following Notch activation was sensitive to the γ-secretase inhibitor DAPT (FIG. 2e). […] In contrast to CNTF, no Tyr705 phosphorylation was detected at any of the doses of Notch receptor ligands.
It was determined that insulin also maintains phosphorylation of serine 727 in STAT3 in foetal neural stem cell cultures.
(Immunoblotting shows a protein as a band on a membrane.)

The test system of another assay is Notch1. The experiment in a line: Notch activation (Notch1IC / Notch ICD) immunocytochemical detection. The assay is classed as cell-based, mouse. Particulars: Notch ligands 1 hour. From the text: Antibodies were used that specifically bind: Notch1IC (Chemicon, 5352), GFP (Molecular Probes, A11122), Oct3/4 (Santa Cruz, sc-5279), SSEA1 and SSEA4 (Developmental Studies HybridomaBank), Tra-1-60 (Chemicon, MAB4360), Tra-1-81 (Chemicon, MAB4381), human nestin (Chemicon, MAB5326), Sox-1 (Gift from Dr. R Lovell-Badge), TH (Pel-Freez, P40101-0), Tuj1 (Covance, MMS-435P), rat nestin (McKay Lab), GFAP (Dako, z0334), CNPase (Chemicon, MAB326), BrdU (Accurate, H5903), DCX (Santa Cruz, sc-8066), Sox2 (R&D, MAB2018), Hu (Molecular Probes, A21271).
To assay for Notch activation, cultures were treated with the Notch ligands for 1 hour and Notch1 activation was detected by immunocytochemical staining of Notch1IC (FIG. 1b).
It was determined that insulin facilitates Notch cleavage using immunocytochemical detection.

In a further assay the test system is nucleostemin, SHH. As to the kind of experiment: Nucleostemin and SHH protein expression in CNS stem cells. The assay is classed as cell-based, mouse. From the text: The interest in stem cell self-renewal mechanisms prompted analysis of potential down-stream components of the Notch/STAT3-Ser727 (Notch/sSTAT) pathway. Nucleostemin is a p53-binding protein expressed in self-renewing CNS stem cells and cancer cells (Tsai et al., J Neurosci 20:3725-35, 2000; Tsai et al., J Cell Biol 168:179-84, 2005). Sonic Hedgehog (SHH) is a protein with functions in fate specification and stem cell survival in the fetal and adult CNS (Palma et al., Development 132:335-44, 2005).
There are two forms of mRNA encoded by the Hes3 gene, Hes3a and Hes3b.

In assay [1] the test system is E13.5 cortical embryonic mouse CNS stem cells. As to the kind of experiment: CNS stem cell plating efficiency / colony formation / survival. The assay is classed as cell-based. The conditions noted are these: 5 days, versus FGF2 control; CNTF low 0.01, 0.1 ng/ml or high 20 ng/ml with JAK inhibitor. The method, then: Cell culture: E13.5 cortical embryonic mouse and adult rat subventricular zone CNS stem cells were grown as previously described (Johe et al., Genes Dev 10:3129-40, 1996; Rajan et al., J Neurosci 18:3620-9, 1998). Cells were expanded in serum-free DMEM/F12 medium with N2 supplement with FGF2 (20 ng/ml) for 5 days and were re-plated at 1000-10,000 cells per cm^2. FGF2 was included throughout our experiments, unless otherwise stated.
To explore these paradoxical observations, CNS stem cell cultures from mid-gestation (embryonic day 13.5) mouse dorsal telencephalon were treated with soluble Notch ligands. […] Following initial passaging, the cells were plated at a density of 1000 cells/cm^2, cultured for 5 days in the presence of FGF2, and colony numbers, sizes, and BrdU incorporation (after a 4 hour BrdU pulse) were enumerated. Notch activation by Jagged-1 or Delta-4 (200 ng/ml) increased the number of colonies generated in vitro by over 3-fold (FIG. 1a). […] The effects of Notch activation were most dramatic when treatments were initiated at the start of the culture.
Insulin in the medium is also thought to promote cell survival. […] Seeding cells in the absence of insulin caused the plating efficiency measured at five days to drop to 29.9%±37.9 (FIG. 1e). Delta-4 was able to compensate for the lack of insulin in the medium, and restored plating efficiency (125%±19.4). Because Notch activation improved survival, activation of Akt, a ser/threonine kinase known to be involved in cell survival, was assayed. Notch activation rapidly (5 minutes) promoted the phosphorylation of Akt on Ser473 and […] in both the presence and absence of insulin (FIG. 1f).

On to `C[C@H](NC(=O)Cc1cc(F)cc(F)c1)C(=O)N[C@H](C(=O)OC(C)(C)C)c1ccccc1` [DAPT, reference compound], for which, in the assay on Hes3, the “effect on Jagged-induced Hes3 mRNA induction” value is given as “inhibited Hes3 induction by Jagged1”. In the assay with STAT3, the “basal levels of pSer727” value was “reduced the basal levels of pSer727” and the “effect on STAT3-Ser727 phosphorylation following Notch activation” value was “blocked”. Besides, the “accumulation of Notch1IC” value with Notch1 is reported as “blocks the accumulation of Notch1IC”.
As to `COc1ccc(S(=O)(=O)Nc2ccccc2CN(C)C/C=C/c2ccc(Cl)cc2)cc1` [KN92, reference compound], the “effect on STAT3-Ser727 phosphorylation following Notch activation” value in the assay with STAT3 is “no effect”.
Same read-out and setting: the entry for `CN(C)S(=O)(=O)c1ccc2c(c1)/C(=C/c1cc3c([nH]1)CCCC3)C(=O)N2` [SU6656, reference compound] is “blocked”.

B1: CNTF: cilliary neurotrophic factor, CNTF (577-NT) from R&D (protein, UniProt P26441 1-200, looked up)
Ciliary neurotrophic factor: MAFTEHSPLTPHRRDLCSRSIWLARKIRSDLTALTESYVKHQGLNKNINLDSADGMPVASTDQWSELTEAERLQENLQAYRTFHVLLARLLEDQQVHFTPTEGDFHQAIHTLLLQVAAFAYQIEELMILLEYKIPRNEADGMPINVGDGGLFEKKLWGLKVLQELSQWTVRSIHDLRFISSHQTGIPARGSHYIANNKKM
Consider B1, for which the “nucleostemin and SHH protein expression” value in the assay on nucleostemin, SHH is on record as “Nucleostemin levels were also increased”. Also, the “Hes3 mRNA levels” value with Hes3 (CNTF 20 ng/ml) was “did not induce Hes3 mRNA”. Moreover, in the assay with Hes3, the “effect on Jagged-induced Hes3 mRNA induction” value is listed as “inhibited Hes3 induction by Jagged1”. In the assay with Hes3 (immunohistochemical), the “Hes3 expression at the protein expression level” value is listed as “inhibits”. For the same molecule, the “time of peak STAT3 phosphorylation” value in the assay with STAT3 is on record as “around 30 min”. Further, in the assay on STAT3 (dose response, 30 minutes), the “concentration at which phosphorylation of STAT3 on Tyr705 occurs” value was more than 1 ng/mL and the “concentration inducing phosphorylation of STAT3 on Ser727” value is less than 0.5 ng/mL. Further, the “CNS stem cell survival / plating efficiency” value in assay [1] is on record as “increased survival; also recorded: support CNS stem cell survival”.
